Measurements as given in patent US20110223127A1 (NOXXON PHARMA, published 2011).

Target: T1, human [^125J]-SDF-1α (human, UniProt P48061 22-89, 125J (iodine-125) label, position not stated)
T1 construct: Bought from PerkinElmer; also called radiolabelled human SDF-1; CXCL12
Assay: radioligand binding of human [125J]-SDF-1 to CHO cells expressing human CXCR4, scintillation counting (total binding, cpm); the blocker varied is the nucleic acid Spiegelmer 192-A10-001, preincubated with the ligand
Procedure: For binding assays CXCR4-expressing cells were seeded into polylysine-coated 24-well plates at a cell density of 1×10⁵ cells/well and cultivated overnight at 37° C. and 5% CO₂ in CHO-Ultra medium (Cambrex, Verviers, Belgium) containing 50 units/ml penicillin, 50 μg/ml streptomycin and 0.5 mg/ml geneticin.
For the binding experiment, the medium was removed and the cells were washed once with Hanks balanced salt solution, additionally containing 20 mM HEPES, 1 mg/ml bovine serum albumin, 0.1 mg/ml bacitracin (HBB). Then the cells were incubated in 0.2 ml HBB for 1 h at room temperature together with […] [¹²⁵J]-SDF-1 (PerkinElmer, Rodgau, Germany) and varying concentrations of Spiegelmer.
Non-specific binding was determined by adding unlabeled human SDF-1 (R & D Systems, Wiesbaden, Germany) to a final concentration of 0.5 μM to several wells.

T1 sequence (P48061 22-89): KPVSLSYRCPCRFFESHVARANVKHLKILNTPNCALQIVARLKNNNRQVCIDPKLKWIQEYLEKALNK

- binding result: binds
B1: human CXCR4-receptor (receptor, UniProt P61073 1-352, looked up)
chain: MEGISIYTSDNYTEEMGSGDYDSMKEPCFREENANFNKIFLPTIYSIIFLTGIVGNGLVILVMGYQKKLRSMTDKYRLHLSVADLLFVITLPFWAVDAVANWYFGNFLCKAVHVIYTVNLYSSVLILAFISLDRYLAIVHATNSQRPRKLLAEKVVYVGVWIPALLLTIPDFIFANVSEADDRYICDRFYPNDLWVVVFQFQHIMVGLILPGIVILSCYCIIISKLSHSKGHQKRKALKTTVILILAFFACWLPYYIGISIDSFILLEIIKQGCEFENTVHKWISITEALAFFHCCLNPILYAFLGAKFKTSAQHALTSVSRGSSLKILSKGKRGGHSSVSTESESSSFHSS
notes: whole, on cells; also called SDF-1 receptor
